B1: Azoarcus group I ribozyme (parent)
chain: GUGCCUUGCGCCGGGAAACCACGCAAGGGAUGGUGUCAAAUUCGGCGAAACCUAAGCGCCCGCCCGGGCGUAUGGCAACGCCGAGCCAAGCUUCGGCGCCUGCGCCGAUGAAGGUGUAGAGACUAGACGGCACCCACCUAAGGCAAACGCUAUGGUGAAGGCAUAGUCCAGGGAGUGGCGAAAGUCACACAAACCGG

Variants of: B1
Experiment: reverse-splicing fitness (ratio to wild type); higher = more active; in vitro selection; Mg2+ level not given
Outline: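 An in vitro group I ribozyme library with randomized positions was T7-transcribed and gel-purified. In triplicate, 10 pmol RNA in EPPS pH 7.5 was reacted with 50 pmoles of a 30-nt RNA substrate for 1 h at 37 °C across several added MgCl2 levels (1–48 mM), then stopped with EDTA. Products were reverse transcribed from a substrate-complementary primer, PCR-amplified and sequenced (HiSeq 4000). Fitness is a variant's read proportion after selection over that before, normalised to wild type.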

Going from GUGCCUUGCGCCGGGAAACCACGCAAGGGAUGGUGUCAAAUUCGGCGAAACCUAAGCGCCCGCCCGGGCGUAUGGCAACGCUGAGCCAAGCUUCGGCGCCUGCGCCGAUGAAGGUGUAGCGACUAGACGGCACCCACCUAAGGCAAACGCUAUGGUGAAGGCAUAGUCAAGGGAGAGGCGAAAGUCACACAAACCGG [C82U A120C C169A U176A] to GUGCCUUGCGCCGGGAAACCACGCAAGGGAUGGUGUCAAAUUCGGCGAAACCUAAGCGCCCGCCCGGGCGUAUGGCAACGCUGAGCCAAGCUUCGGCGCCUGCGCCGAUGAAGGUGUAGCGACUAGACGGCACCCACCUAAGGCAAACGCUAUGGUGAAGGCAUAGUCAAGGGAGCGGCGAAAGUCACACAAACCGG [C82U A120C C169A U176C], the reverse-splicing fitness falls from 0.0143 to 0.0121.

First: GUGCCUUGCGCCGGGAAACCACGCAAGGGAUGGUGUCAAAUUCGGCGAAACCUAAGCGCCCGCCCGGGCGUAUGGCAACGCUGAGCCAAGCUUCGGCGCCUGCGCCGAUGAAGGUGUAGCGACUAGACGGCACCCACCUAAGGCAAACGCUAUGGUGAAGGCAUAGUCAAGGGAGGGGCGAAAGUCACACAAACCGG [C82U A120C C169A U176G]
Second: GUGCCUUGCGCCGGGAAACCACGCAAGGGAUGGUGUCAAAUUCGGCGAAACCUAAGCGCCCGCCCGGGCGUAUGGCAACGCUGAGCCAAGCUUCGGCGCCUGCGCCGAUGAAGGUGUAGCGACUAGACGGCACCCACCUAAGGCAAACGUUAUGGUGAAGGCAUAGUCGAGGGAGGGGCGAAAGUCACACAAACCGG [C82U A120C C150U C169G U176G]
The reverse-splicing fitness of the first is higher: 0.00409 for the first, 0.0038 for the second.

Going from GUGCCUUGCGCCGGGAAACCACGCAAGGGAUGGUGUCAAAUUCGGCGAAACCUAAGCGCCCGCCCGGGCGUAUGGCAACGCUGAGCCAAGCUUCGGCGCCUGCGCCGAUGAAGGUGUAGCGACUAGACGGCACCCACCUAAGGCAAACGCUAUGGUGAAGGCAUAGUCAAGGGAGUGGCGAAAGUCACACAAACCGG [C82U A120C C169A] to GUGCCUUGCGCCGGGAAACCACGCAAGGGAUGGUGUCAAAUUCGGCGAAACCUAAGCGCCCGCCCGGGCGUAUGGCAACGCUGAGCCAAGCUUCGGCGCCUGCGCCGAUGAAGGUGUAGCGACUAGACGGCACCCACCUAAGGCAAACGCUAUGGUGAAGGCAUAGUCUAGGGAGUGGCGAAAGUCACACAAACCGG [C82U A120C C169U], the reverse-splicing fitness rises from 0.00809 to 0.0213.

Going from GUGCCUUGCGCCGGGAAACCACGCAAGGGAUGGUGUCAAAUUCGGCGAAACCUAAGCGCCCGCCCGGGCGUAUGGCAACGCUGAGCCAAGCUUCGGCGCCUGCGCCGAUGAAGGUGUAGCGACUAGACGGCACCCACCUAAGGCAAACGCUAUGGUGAAGGCAUAGUCGAGGGAGUGGCGAAAGUCACACAAACCGG [C82U A120C C169G] to GUGCCUUGCGCCGGGAAACCACGCAAGGGAUGGUGUCAAAUUCGGCGAAACCUAAGCGCCCGCCCGGGCGUAUGGCAACGCUGAGCCAAGCUUCGGCGCCUGCGCCGAUGAAGGUGUAGGGACUAGACGGCACCCACCUAAGGCCAACGAUAUGGUGAAGGCAUAGUCAAGGGAGAGGCGAAAGUCACACAAACCGG [C82U A120G A145C C150A C169A U176A], the reverse-splicing fitness rises from 0.00705 to 0.0124.

Compared with GUGCCUUGCGCCGGGAAACCACGCAAGGGAUGGUGUCAAAUUCGGCGAAACCUAAGCGCCCGCCCGGGCGUAUGGCAACGCUGAGCCAAGCUUCGGCGCCUGCGCCGAUGAAGGUGUAGGGACUAGACGGCACCCACCUAAGGCCAACGAUAUGGUGAAGGCAUAGUCAAGGGAGCGGCGAAAGUCACACAAACCGG [C82U A120G A145C C150A C169A U176C], GUGCCUUGCGCCGGGAAACCACGCAAGGGAUGGUGUCAAAUUCGGCGAAACCUAAGCGCCCGCCCGGGCGUAUGGCAACGCUGAGCCAAGCUUCGGCGCCUGCGCCGAUGAAGGUGUAGGGACUAGACGGCACCCACCUAAGGCCAACGAUAUGGUGAAGGCAUAGUCAAGGGAGGGGCGAAAGUCACACAAACCGG [C82U A120G A145C C150A C169A U176G] is lower in reverse-splicing fitness: 0.0049 for the first, 0.00326 for the second.

First: GUGCCUUGCGCCGGGAAACCACGCAAGGGAUGGUGUCAAAUUCGGCGAAACCUAAGCGCCCGCCCGGGCGUAUGGCAACGCUGAGCCAAGCUUCGGCGCCUGCGCCGAUGAAGGUGUAGGGACUAGACGGCACCCACCUAAGGCCAACGCUAUGGUGAAGGCAUAGUCCAGGGAGUGGCGAAAGUCACACAAACCGG [C82U A120G A145C]
Second: GUGCCUUGCGCCGGGAAACCACGCAAGGGAUGGUGUCAAAUUCGGCGAAACCUAAGCGCCCGCCCGGGCGUAUGGCAACGCUGAGCCAAGCUUCGGCGCCUGCGCCGAUGAAGGUGUAGGGACUAGACGGCACCCACCUAAGGCCAACGAUAUGGUGAAGGCAUAGUCCAGGGAGUGGCGAAAGUCACACAAACCGG [C82U A120G A145C C150A]
The reverse-splicing fitness of the first is higher: 0.0203 for the first, 0.00664 for the second.

First: GUGCCUUGCGCCGGGAAACCACGCAAGGGAUGGUGUCAAAUUCGGCGAAACCUAAGCGCCCGCCCGGGCGUAUGGCAACGCUGAGCCAAGCUUCGGCGCCUGCGCCGAUGAAGGUGUAGGGACUAGACGGCACCCACCUAAGGCCAACGAUAUGGUGAAGGCAUAGUCAAGGGAGUGGCGAAAGUCACACAAACCGG [C82U A120G A145C C150A C169A]
Second: GUGCCUUGCGCCGGGAAACCACGCAAGGGAUGGUGUCAAAUUCGGCGAAACCUAAGCGCCCGCCCGGGCGUAUGGCAACGCUGAGCCAAGCUUCGGCGCCUGCGCCGAUGAAGGUGUAGCGACUAGACGGCACCCACCUAAGGCAAACGUUAUGGUGAAGGCAUAGUCCAGGGAGAGGCGAAAGUCACACAAACCGG [C82U A120C C150U U176A]
The reverse-splicing fitness of the first is lower: 0.00745 for the first, 0.0291 for the second.

Variant GUGCCUUGCGCCGGGAAACCACGCAAGGGAUGGUGUCAAAUUCGGCGAAACCUAAGCGCCCGCCCGGGCGUAUGGCAACGCUGAGCCAAGCUUCGGCGCCUGCGCCGAUGAAGGUGUAGCGACUAGACGGCACCCACCUAAGGCAAACGUUAUGGUGAAGGCAUAGUCCAGGGAGGGGCGAAAGUCACACAAACCGG [C82U A120C C150U U176G] has a reverse-splicing fitness of 0.00855.

Reference: the RNAGym collection of RNA variant scans (doi:10.1093/molbev/msab373)
